Reference: paper PMC7083068 (Journal of thrombosis and haemostasis : JTH, 2019)

Target: human recombinant FVIII (Advate) (human, UniProt P00451 20-2351)
Test: ELISA

Chain of human recombinant FVIII (Advate) (P00451 20-2351): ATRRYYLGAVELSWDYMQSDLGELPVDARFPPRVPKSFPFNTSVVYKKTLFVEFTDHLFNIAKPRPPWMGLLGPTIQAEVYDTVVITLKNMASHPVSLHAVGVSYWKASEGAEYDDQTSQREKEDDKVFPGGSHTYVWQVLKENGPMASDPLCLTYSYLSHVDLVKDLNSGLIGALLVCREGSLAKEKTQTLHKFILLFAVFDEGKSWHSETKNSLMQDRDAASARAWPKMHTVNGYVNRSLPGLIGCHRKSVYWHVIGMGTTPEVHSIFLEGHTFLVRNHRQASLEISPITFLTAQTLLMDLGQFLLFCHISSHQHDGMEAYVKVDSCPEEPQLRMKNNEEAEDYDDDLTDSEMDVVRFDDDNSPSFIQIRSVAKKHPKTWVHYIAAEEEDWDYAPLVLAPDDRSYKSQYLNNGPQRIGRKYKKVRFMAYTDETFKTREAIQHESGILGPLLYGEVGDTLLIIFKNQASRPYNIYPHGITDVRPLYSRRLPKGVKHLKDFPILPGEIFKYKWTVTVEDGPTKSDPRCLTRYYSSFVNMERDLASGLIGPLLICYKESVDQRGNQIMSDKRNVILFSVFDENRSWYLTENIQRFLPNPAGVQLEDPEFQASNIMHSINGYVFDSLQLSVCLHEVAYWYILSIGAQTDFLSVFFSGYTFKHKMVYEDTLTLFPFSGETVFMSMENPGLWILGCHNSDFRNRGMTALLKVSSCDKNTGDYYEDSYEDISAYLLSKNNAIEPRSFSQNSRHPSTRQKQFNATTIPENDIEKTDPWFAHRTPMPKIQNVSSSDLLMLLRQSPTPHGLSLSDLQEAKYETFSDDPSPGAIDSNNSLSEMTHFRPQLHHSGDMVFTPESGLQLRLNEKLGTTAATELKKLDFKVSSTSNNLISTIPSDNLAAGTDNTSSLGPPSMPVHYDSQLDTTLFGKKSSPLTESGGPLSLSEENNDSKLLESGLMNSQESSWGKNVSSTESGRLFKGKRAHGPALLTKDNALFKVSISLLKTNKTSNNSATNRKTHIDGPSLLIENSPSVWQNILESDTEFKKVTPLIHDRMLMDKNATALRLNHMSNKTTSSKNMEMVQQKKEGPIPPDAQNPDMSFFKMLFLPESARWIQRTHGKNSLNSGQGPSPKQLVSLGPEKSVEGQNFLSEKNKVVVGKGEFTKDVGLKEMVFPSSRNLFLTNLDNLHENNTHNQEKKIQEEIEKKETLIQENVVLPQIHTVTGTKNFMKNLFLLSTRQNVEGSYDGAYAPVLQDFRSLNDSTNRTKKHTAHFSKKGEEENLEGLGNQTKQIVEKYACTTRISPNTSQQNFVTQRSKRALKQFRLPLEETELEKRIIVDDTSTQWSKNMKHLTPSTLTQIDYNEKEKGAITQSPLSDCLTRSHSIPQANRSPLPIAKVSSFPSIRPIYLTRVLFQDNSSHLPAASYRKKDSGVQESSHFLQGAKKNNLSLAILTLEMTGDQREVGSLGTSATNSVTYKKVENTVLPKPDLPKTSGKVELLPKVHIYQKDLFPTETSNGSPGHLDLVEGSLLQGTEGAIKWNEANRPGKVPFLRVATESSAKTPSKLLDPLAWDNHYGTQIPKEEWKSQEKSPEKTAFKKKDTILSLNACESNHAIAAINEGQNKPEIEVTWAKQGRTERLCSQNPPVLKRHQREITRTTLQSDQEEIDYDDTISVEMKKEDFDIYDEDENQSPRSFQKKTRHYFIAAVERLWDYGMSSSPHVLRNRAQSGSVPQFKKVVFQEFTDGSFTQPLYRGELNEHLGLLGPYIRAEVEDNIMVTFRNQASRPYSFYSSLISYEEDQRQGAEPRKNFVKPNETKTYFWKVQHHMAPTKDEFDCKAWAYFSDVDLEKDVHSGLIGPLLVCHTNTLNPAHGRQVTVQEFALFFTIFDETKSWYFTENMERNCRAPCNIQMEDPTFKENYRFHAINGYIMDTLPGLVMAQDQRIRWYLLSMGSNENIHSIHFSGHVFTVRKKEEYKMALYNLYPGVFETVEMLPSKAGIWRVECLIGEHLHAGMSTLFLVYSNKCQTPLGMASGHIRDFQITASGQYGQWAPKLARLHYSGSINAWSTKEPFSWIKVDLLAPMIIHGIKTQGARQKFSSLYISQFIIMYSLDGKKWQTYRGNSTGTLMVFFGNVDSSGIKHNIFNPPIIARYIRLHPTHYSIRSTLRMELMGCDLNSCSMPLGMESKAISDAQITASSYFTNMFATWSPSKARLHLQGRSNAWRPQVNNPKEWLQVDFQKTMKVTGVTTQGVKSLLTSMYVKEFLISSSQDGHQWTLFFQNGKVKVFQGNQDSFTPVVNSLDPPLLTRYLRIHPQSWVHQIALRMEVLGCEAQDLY

Kd: < 0.1 nM
B1: recombinant CLEC4M-Fc chimera (Fc fusion, human, UniProt Q9H2X3 71-399, looked up)
chain: QVSKVPSSLSQEQSEQDAIYQNLTQLKAAVGELSEKSKLQEIYQELTQLKAAVGELPEKSKLQEIYQELTRLKAAVGELPEKSKLQEIYQELTRLKAAVGELPEKSKLQEIYQELTRLKAAVGELPEKSKLQEIYQELTELKAAVGELPEKSKLQEIYQELTQLKAAVGELPDQSKQQQIYQELTDLKTAFERLCRHCPKDWTFFQGNCYFMSNSQRNWHDSVTACQEVRAQLVVIKTAEEQNFLQLQTSRSNRFSWMGLSDLNQEGTWQWVDGSPLSPSFQRYWNSGEPNNSGNEDCAEFSGSGWNDNRCDVDNYWICKKPAACFRDE
